T1: peptide 1 (human)
T1 construct: also called peptide 1 of mature GDF8
T1 peptide: DFGLDCDEHSTESRCCRY

T2: peptide 5 (human)
T2 construct: also called peptide 5 of mature GDF8
T2 peptide: CCTPTKMSPINMLYFNGK

T3: mature GDF8 from mouse serum (mouse, UniProt O08689 268-376)
T3 construct: mature; also called mouse serum mature GDF8
T3 sequence (looked up): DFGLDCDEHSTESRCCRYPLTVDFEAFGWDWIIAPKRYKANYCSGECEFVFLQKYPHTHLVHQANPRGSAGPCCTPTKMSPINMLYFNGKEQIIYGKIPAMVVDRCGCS

T4: mature GDF8 (human, UniProt O14793 267-375)
T4 construct: also called myostatin; mstn
T4 sequence: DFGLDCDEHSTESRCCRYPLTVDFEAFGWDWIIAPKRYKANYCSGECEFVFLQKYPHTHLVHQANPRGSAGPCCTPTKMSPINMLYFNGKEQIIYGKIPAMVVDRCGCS


Legend:
peptide 1 = target: T1, peptide 1; test: peptide ELISA
Procedure: (§1) Eleven peptides were generated from mature GDF8 to test and localize antibody binding (See FIG. 6). Peptide ELISA was done on glutaraldehyde coated ELISA plates and on uncoated ELISA plates (NUNC-Immuno™ plate MaxiSorp™ surface, Nalge Nunc International, Cat. No. 439454). Glutaraldehyde coated plates were prepared by mixing 250 μl glutaraldehyde (50% w/v) with 50 ml deionized water and adding 200 μl of the solution into each well. Plates were incubated for at least 1 hour at room temperature. The glutaraldehyde was shaken out of the plate and smashed upside down on paper towels to remove all the liquid prior to use.
(§2) ELISA plates were coated with peptide at 1.0 μg/well/50 μl (in Sodium bicarbonate buffer, pH 9.6) for at least 4 hours, and then blocked with 200 μl blocker (1%BSA, 1%Ethanolamine pH 7.4) for minimum 4 hours. Plates were washed with PBST three times with 200 μl/well. 50 μl antibody (1 μg/ml in PBST, Phosphate-buffered saline (PBS) with 0.05% Tween-20) sample was added to the wells for 1 hour. Plates were then washed with PBST three times. 50 μl anti-human IgG-horseradish peroxidase(HRP) (Pierce, Cat# 31420) diluted in PBST is added for another hour. The wells were washed again with TBST three times, and then with deionized water twice. 50 μl ABTS (MOSS) was added for 5-20 minutes, and the signal was detected at 405 nm in a colormetric plate reader.

peptide 5 = target: T2, peptide 5; test: peptide ELISA
Procedure: as §1, §2

[1] = target: T3, mature GDF8 from mouse serum; test: immunoprecipitation from mouse serum, western blot
Procedure: An immunoprecipitation study was conducted to test the binding of myostatin antibodies to mature GDF8 from mouse serum. […] mouse serum (Rockland, Cat ## D208-00) was incubated with 20 μg myostatin antibodies for 16 hours at 4° C. Protein A Dynalbeads were added and incubated for 90 minutes at 4° C. The immunoprecipitate was collected using MPC-E magnetic concentrator (Dynal, Norway), and washed four times with PBS. […] Western blotting was performed using Odyssey Infrared imaging system (Li-Cor). Mature GDF8 was detected using biotinylated goat anti-myostatin antibody (R&D systems, Cat# BAF788). […] It is known that mature GDF8 in the serum binds to many inhibitory proteins such as propeptide, FLRG, and GASAP1 (Hill et al. (2002) The myostatin propeptide and the follistatin-related gene are inhibitory binding proteins of myostatin in normal serum. J. Biol. Chem. 277: 40735-40741. Hill et al. (2003) Regulation of myostatin in vivo by growth and differentiation factor-associated serum protein-1: a novel protein with protease inhibitor and follistatin domains. Mol. Endocrin. 17(6): 1144-1154). […] Such non-competitive neutralizing antibodies would be advantageous in vivo.

mature GDF8 = target: T4, mature GDF8; test: immunoprecipitation from 293T conditioned medium, western blot
Procedure: An immunoprecipitation study was conducted to test the binding of myostatin antibodies to mature GDF8 and mature GDF8/propeptide complex. 293T cells were transfected with GDF-8 expression construct. Conditioned media was harvested 7 days after transfection, which contained mature GDF8 and latent complex. 100 μl conditioned media was incubated with 10 μg myostatin antibodies for 16 hours at 4° C. Protein A Dynabeads (Dynal, Norway) were added and incubated for 90 minutes at 4° C. The immunoprecipitate was collected using MPC-E magnetic concentrator (Dynal, Norway), and washed four times with PBS. […] Western blotting was performed using Odyssey infrared imaging system (Li-Cor). Mature GDF8 and unprocessed GDF8 were detected using goat anti-myostatin antibody (R&D systems, Cat# AF788). Rabbit anti-propeptide polyclonal antibody (made in-house) was used to detect both propeptide and unprocessed GDF8. […] No other antibodies immunoprecipitated mature GDF8, propeptide, or unprocessed GDF8. Lane 4 is the 1/10 medium loading control, and lane 7 is immunoprecipitation control with medium only.

| binding result (peptide 1) | binding result (peptide 5) | binding result [1] | binding result (mature GDF8) | Binder |
| --- | --- | --- | --- | --- |
| binds | binds | binds | binds | 2-112-1 (antibody, V domains shown, Full-length deduced chains) VH: EVQLLESGGGLIQPGGSLRLSCAASGFTFSSFAMSWVRQAPGKGLEWVSTISGSGGYTFYADSVKGRFTISRDNSKNTLYLQMNSLRAEDTAVYYCAKDGRYNWNYGAFDIWGQGTMVTVSS VL: EIVMTQSPATLSVSPGERATLSCRASQSVSSNLAWYQQKPGQAPRLLIYGASTRATGFPARFSGSGSGTEFTLTISSLQSEDFAIYYCQQYNNWPLTFGGGTKVEIKR |
| binds | binds | binds | binds | 2-43-1 (antibody, V domains shown, Full-length deduced chains) VH: EVQLLESGGGLVQPGGSLRLSCAASGFTFSSYAMSWVRQAPGKGLEWVSAISGSGGSTFYADSVTGRFTISRDNSKNTLFLQLNSLRAEDTAVYHCAKDGRFNWNYGASDIWGQGTMVTVSS VL: EIVMTQSPATLSVSPGERATLSCRTSQSVSSNLAWYQQKPGQAPRLLIYGASTRATGIPARFSGSGSGTEFTLTISSLQSEDFAVYYCQQYNNWPLTFGGGTKVEIKR |
| binds | binds | binds | binds | 2-177-1 (antibody, V domains shown, Full-length deduced chains) VH: EVQLLESGGGLIQPGGSLRLSCAASGFTFSSFAMSWVRQAPGKGLEWVSTISGSGGSTYYADFVKGRFTISRDNSKNTLYLQMNSLRAEDTAVYYCAKDGRYNWNYGAFDIWGQGTMVTVSS VL: EIVMTQSPATLSVSPGERATLSCRASQSVRSNLAWFQQKPGQAPRLLIYGASTRATGIPARFSGSGSGTEFTLTISSLQSEDFAVYYCQQYNNWPLTFGGGTKVEIKR |
